Blank lines part the entries; values can stand above or below the compound they belong to.
Assays:
Acb2 = biological target: T1, Acb2 (Tequatrovirus T4, UniProt P13314); assay: isothermal titration calorimetry; format: binding; conditions: read-out: apparent Kd
T1 construct: full-length, N-terminal 6xHis-hSUMO2 tag cleaved with hSENP2; expressed in E. coli
T1 sequence (P13314 1-88): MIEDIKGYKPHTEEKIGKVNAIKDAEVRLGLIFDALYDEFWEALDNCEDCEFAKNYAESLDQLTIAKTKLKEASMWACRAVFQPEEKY

VnOptS = biological target: T2, VnOptS (Vibrio navarrensis, UniProt A0A099LXT1); format: biochemical; conditions: MnCl2 1 mM, MgSO4 10 mM, 20 mM HEPES-KOH pH 7.4, 100 mM NaCl; with ATP, GTP, UTP, CTP; from ATP and GTP
T2 construct: gene EA26_14275; N-terminal His6 tag with or without hSUMO2; expressed in E. coli

[1] = biological target: OptS from Klebsiella pneumoniae KP67 (minimal CRISPR polymerase, mCpol) (Klebsiella pneumoniae KP67); assay: crystal structure; apo KpOptS, 1.75 Å, four copies in the asymmetric unit; crystals from 8% PEG 4000, hanging drop, room temperature
[2] = biological target: OptS from Klebsiella pneumoniae KP67 (minimal CRISPR polymerase, mCpol) (Klebsiella pneumoniae KP67); assay: mass photometry; KpOptS at 50 nM in 20 mM HEPES pH 7.5, 250 mM KCl, room temperature; β-amylase as calibration standard
[3] = biological target: OptS from Klebsiella pneumoniae KP67 (minimal CRISPR polymerase, mCpol) (Klebsiella pneumoniae KP67); assay: SEC; HiLoad 16/600 Superdex 200 pg, 20 mM HEPES pH 7.5, 250 mM KCl, 1 mM TCEP-KOH; elution volume compared with molecular weight standards

Compound: Nc1ncnc2c1ncn2[C@@H]1O[C@@H]2COP(=O)(O)O[C@@H]3[C@H](O)[C@@H](COP(=O)(O)O[C@H]2[C@H]1O)O[C@H]3n1cnc2c(N)ncnc21 [2′,3′-c-di-AMP]
Kd (Acb2): ~0.062 µM

Compound: Nc1nc2c(ncn2[C@@H]2O[C@@H]3COP(=O)(O)O[C@@H]4[C@H](O)[C@@H](COP(=O)(O)O[C@H]3[C@H]2O)O[C@H]4n2cnc3c(N)ncnc32)c(=O)[nH]1 [3′,2′-cGAMP]
HPLC and MS of products (VnOptS): The most abundant product of the in vitro reactions was a linkage isomer of cyclic GMP-AMP

stoichiometry N [1]: 4 | stoichiometry N [2]: 4 | stoichiometry N [3]: > 2
Compound: OptS from Klebsiella pneumoniae KP67 (minimal CRISPR polymerase, mCpol) (enzyme)
